To fix the notation:
B1: HDV Ribozyme (parent)
chain: GGCCGGCAUGGUCCCAGCCUCCUCGCUGGCGCCGGCUGGGCAACAUUCCGAGGGGACCGUCCCCUCGGUAAUGGCGAAUGGGACCCA

The variants in this series derive from B1. As to the kind of experiment: self-cleavage, relative activity (ratio to wild type); higher = more cleavage; co-transcriptional.
For GGCCGGCAUGGUCCCAGCCUCCUCGCUGACACCGGCUGGGCAACAUUCCGAGGGGACCGUCCCCUCGGUAAUGGCGAAUGGGACCCA [G29A G31A], the self-cleavage is 0.0723.

In the case of GGCCGGCAUGAUCCCAGCCUCCUCGCUGGCGCCGGCUGGGCAACAUUCCGAGCGGACCGUCCCCUCGGUAAUGGCGAAUGGGACCCA [G11A G53C], the self-cleavage came out at 0.372.

Regarding GGCCGGCAUGGUCCCAGCCUCCUCUCUGGCGCCGGCUGGGCAACAUUCCGAGGGGACCGUCCCCUCGGUAAUGGCGAAUGUGACCCA [G25U G81U], the self-cleavage is 0.138.

Regarding GGCCGGCAUAGUCCCAGCCUCCUCGCUGGCGCCGGCUGGGCAACAUUCCGAGGGGACCGUUCCCUCGGUAAUGGCGAAUGGGACCCA [G10A C61U], the self-cleavage is 0.84.

Consider GGCCGGCAUGUUCCCAGCCUCCUCGCUGGCGCCGGCUGGGCAACAUUCCGAGGGGACCGUCCCCUCGGUAAUGGCGAAUGGGACCGA [G11U C86G], for which the self-cleavage stood at 0.199.

In the case of GGCCGGAAUGGUCCCAGCCUCCUCGCUGGCGCCGGCUGGGCAACAUUCCGAGGGGACCGUCCCCUCGGUAAUUGCGAAUGGGACCCA [C7A G73U], the self-cleavage came to 0.128.

For the variant GGCCGGCAUGGUCCCAGCCUCCUCGCUGGCGCCGGCUGGGCAACAUUCCGAGGGGACCGUCGCCUCGGUAAUGGCGAAUGGGACCUA [C62G C86U], the self-cleavage turned out to be 0.923.

Consider GGCCGGCAUGGUCCAAGCCUCCUCGCUGGCGCCGGCUGGGCAACAUUCCGAGGGGACCGUCCCCUCGGGAAUGGCGAAUGGGACCCA [C15A U69G], for which the self-cleavage is 0.492.

Turning to GGCCGGCAUGGUCCCAACCUCCUCGCUGGCGCCGGCUGGGCAACAUUCCGAGGGGACCGUCCCUUCGGUAAUGGCGAAUGGGACCCA [G17A C64U], the self-cleavage amounted to 0.722.

As for GGCCGGCAUGGUCCCAGCCUCCUCGCUGGCGCCGGCUGGGCAACAUUCCGAGGGGACCGUCCCCUUGGUAAUGGCGAAUGGGACCCG [C66U A87G], the self-cleavage worked out at 0.999.

Regarding GGCCGGCAUGGUCCCAGCCUCCUCGCUGGCGCCGGCUGGGCAACAUUCCGAGGGGACCGUCCCCUCGAUAAUGGCGAAUGGGACCCC [G68A A87C], the self-cleavage was 0.918.

As for CGCCGGCAUGGUCCCAGCCUCCUCGCUGGCGCCGGCAGGGCAACAUUCCGAGGGGACCGUCCCCUCGGUAAUGGCGAAUGGGACCCA [G1C U37A], the self-cleavage is 0.

Regarding GGCCGGCAUGGUCCCAGCCUCCUCGCUGGCGCCGGCUGGGCAACAUUCCGAGGGGACCGUCCCCUCGGUGAUGGCGAAUGGUACCCA [A70G G82U], the self-cleavage was 0.415.

Consider GGCCGGCAUGGUCCCAGCCUCCUCGCUGGCGCCGGCUGGUCAACAUUCCGUGGGGACCGUCCCCUCGGUAAUGGCGAAUGGGACCCA [G40U A51U], for which the self-cleavage came to 0.806.

For the variant GGCCGGCAUGGUCCCAGCCUCCUCGCUGGCGCCGGCUGGGCAACAUUCCGAGGGCACCGUCCCCUCGGUAAUGGCAAAUGGGACCCA [G55C G76A], the self-cleavage turned out to be 1.18.

Consider GGCCGGCAUGGUCCCAGCCUCCUCGCUGGCGCCGGCUGGGCAACAUUCCGAGGGGACCGUCCCCUCGGAAAUGGCGAAUGGAACCCA [U69A G82A], for which the self-cleavage was 0.233.

Regarding GGCCGGCAUGGUCCCAGCCUCCUCGCUGGCACCGGCUGGGCAACAUUCCGAGGGGACCGUCCCCUCGGUAAUGGCGAGUGGGACCCA [G31A A78G], the self-cleavage worked out at 0.0978.

Consider GGCCGGCAUGGUCCCAGCCUCCUCGCUGGCGCUGGCUGGGCAACAUUCCGAGGGGAACGUCCCCUCGGUAAUGGCGAAUGGGACCCA [C33U C57A], for which the self-cleavage came to 0.935.

Regarding GGCCGGCAUGGUCCCAGCCUCCUGGCUGGCGCCGGCUGGGCAACAUUCCGAGGGGACCGUCCCCUAGGUAAUGGCGAAUGGGACCCA [C24G C66A], the self-cleavage amounted to 0.0723.

As for GGCCGGCAUGGUCCCAGCCUACUCGCUGGCGCCGGCUGGGCAACAUUCCGAGGGGUCCGUCCCCUCGGUAAUGGCGAAUGGGACCCA [C21A A56U], the self-cleavage was 0.108.

On to GGCCGGCAUGGUCCCAGCCUCCUCGAUGGCGCCGGCUGGGCAACAUUCCGAGGGGACCGUCCCCUCGGUAAUGGCGAAUCGGACCCA [C26A G80C], for which the self-cleavage stood at 0.348.

Consider GGCCGGCAUGAUCCCAGCCUCCUCGCUGGCGCCGGCUGGGCAACAUUCCGAAGGGACCGUCCCCUCGGUAAUGGCGAAUGGGACCCA [G11A G52A], for which the self-cleavage was 0.38.

In the case of GGCCGGCAUGGUCCCAGCCUCCUCGCUGGCGCCGGCUGGGCAACAUUCCGAGGGGGCCCUCCCCUCGGUAAUGGCGAAUGGGACCCA [A56G G59C], the self-cleavage was 1.3.

For the variant GGCCGGCAUGGUCCCAGCCCCCUCGCUGGCGCCGGCUGGGCAACAUUCCGAGGGGACCGUCCCCUCGGUAAUGGAGAAUGGGACCCA [U20C C75A], the self-cleavage was found to be 0.0594.

As to GGCCGGCAUGGUCCCAACCUGCUCGCUGGCGCCGGCUGGGCAACAUUCCGAGGGGACCGUCCCCUCGGUAAUGGCGAAUGGGACCCA [G17A C21G], the self-cleavage worked out at 0.0415.

As to GGCCGGCCUGGUCCCAGCCUCAUCGCUGGCGCCGGCUGGGCAACAUUCCGAGGGGACCGUCCCCUCGGUAAUGGCGAAUGGGACCCA [A8C C22A], the self-cleavage was found to be 0.249.

For the variant GGCCGGCAUGGUCCCAGCCUCCUCGCUGGCGCCGGGUGGGCAACAUUCCGAGGGGACCGUCCCCUCGGUAAUGUCGAAUGGGACCCA [C36G G74U], the self-cleavage turned out to be 0.111.

For the variant GGCAGGCAUGGUCCCAGCCUCCUCGCUGGCGCCGGCUGGGCAACAUUCCGACGGGACCGUCCCCUCGGUAAUGGCGAAUGGGACCCA [C4A G52C], the self-cleavage came out at 0.406.

For GGCCGGCAUGGUCCCAGCCUCCUCGCUGGCGCCGGCUGGGCAACACUCCGAGGGGACCGUCCCCUCGGUAAUGGCCAAUGGGACCCA [U46C G76C], the self-cleavage came to 0.415.

As for GGUCGGCAUGGUCCCAGCCUCCUCGCUGGCGCCGGCUGGGCAACAUUCCGAGGGGACCGUCCCCUCGGUGAUGGCGAAUGGGACCCA [C3U A70G], the self-cleavage amounted to 0.973.

Turning to GGCCGGCAUGGUCCCAGCCUCCUCGCUGGUGCCGGCUGGGCAACAUUCCGAGGGGACCGUCCCCUCGGUAAUGGCGAAUGGGACCCU [C30U A87U], the self-cleavage worked out at 0.636.

Take GGCCGGCAUGGUCCCAGCGUCCUCGCUGGCGCCGGCUGGGCAACAUGCCGAGGGGACCGUCCCCUCGGUAAUGGCGAAUGGGACCCA [C19G U47G]: the self-cleavage was 0.

For the origin of these results see the RNAGym collection of RNA variant scans (doi:10.7554/elife.80360).
